In patent US10227575B2, “Multi-domain enzymes having cutinase activity, compositions comprising same and uses thereof” (OZYMES, priority 2015, dated 2019):
Where “and” joins values, the source holds several entries; their conditions need not be identical. Identical values can stand only once. Marks after values point to notes of the source that are not given here.

How the values were obtained:
[1] = Specific activity of purified enzymes (standard esterase assay); format: biochemical
Description: In summary, using different techniques for enzyme purification, pure enzyme preparations were obtained and tested for their activity towards a standard esterase substrate, pNP-palmitate. Enzymatic activities of the purified variants are summarized below:
(§1) Esterase activity was determined by monitoring the formation of para-nitrophenol (pNP) at 410 nm from various pNP-esters using a Beckman UV spectrophotometer (model DU 640). Substrates were completely dissolved in 2-propanol (8 mM) and were then added to 50 mM Tris/HCl buffer pH 8.0 to give a final substrate concentration of 0.8 mM. The reaction (1 mL) was started by adding an appropriate amount of enzyme. One enzyme unit (U) was defined as the amount of enzyme that produced 1 μmol of product (pNP) per min; specific activity was expressed as U/mg protein. A molar extinction coefficient of 15 mM^−1 cm^−1 was used for the calculation.

[2] = Enzymatic activity in the presence of organic solvents; format: biochemical; details: buffer only = 100%
Description: Enzyme activity in various organic solvents was studied over a concentration range of 1-30% at room temperature. pNP-palmitate was completely dissolved in 2-propanol (8 mM) and then added to 50 mM Tris/HCl buffer pH 8.0 containing up to 30% organic solvent to give a final substrate concentration of 0.8 mM. The reaction was started by addition of enzyme and the formation of pNP was assayed as described above in Example 20.1.

[3] = Stability in the presence of hydrogen peroxide; format: physicochemical
Description: as §1
Purified cutinases were incubated at room temperature in the presence of 0, 30, 100, 300, 1500, and 3000 ppm of hydrogen peroxide. Residual enzyme activity was assayed (see Example 20.1) after 1, 2, 3, and 7 days of incubation.

pH dependence of enzymes = format: biochemical; details: for Relative activity (%): highest activity = 100%
Description: The influence of different pH values (from 5.5 to 11) on the activities of the purified enzymes was examined in three buffer systems (sodium acetate, sodium phosphate, and Tris-HCl) at room temperature using pNP-palmitate (see esterase assay in Example 20.1) as a substrate at a final substrate concentration of 0.8 mM.

[4] = Activity of crude culture supernatants from bioreactor; format: biochemical; details: pNP-dodecanoate
[5] = Circular dichroism spectroscopy, melting temperature and refolding; format: physicochemical
Description: CD spectra were recorded using a Jasco™ J-815 spectrometer operating with the Spectra™ Manager software. Temperature was controlled using a Jasco™ PFD-452S peltier unit. Previously purified protein solutions were adjusted to 0.15 mg/mL (if quantities allowed for) and CD spectra were recorded between 190 and 250 nm using a Quartz cuvette (ID=0.1 cm). Blanks containing buffer only were prepared and used as baseline. Temperature dependent protein unfolding was monitored at 222 nm with thermo profiles ranging from 20 up to 90° C. (2° C. min-1). Samples were kept for 5 min at the respective maximum temperature and protein refolding was monitored using the same conditions as above reversing the thermo profiles. Thermodynamic parameters (Tm, ΔH, ΔS, ΔG) for the folding/unfolding process, if applicable, were calculated using the Spectra™ Manager software.

Temperature optimum = format: biochemical; details: for Relative activity at temperature: highest activity set to 100%
Description: For estimation of the temperature optimum, buffer containing pNP-palmitate (see esterase assay in Example 20.1) was pre-incubated to reach the desired temperature, enzyme was then added, and the formation of pNP was assayed. For this experiment, Tris/HCl buffer was replaced with sodium phosphate buffer (50 mM, pH 8.0) to avoid a pH shift at the different temperatures.

[6] = Enzyme substrate profiles, esterase assays; format: biochemical; details: highest activity towards a specific substrate set to 100%
Description: as §1

B1: CfCUT: mature wild-type cutinase from Cellulomonas flavigena, SEQ ID NO: 28 (protein, listed as Cellulomonas flavigena)
chain: APACPDVELVFARGTGEAAGLGIVGRPLERALAAELPGRTVVATAVDYAASSSQASAGPGSGDMVAKVRSRAAACPGTQFVLGGYSQGATVTDLALGIRTGVTAGTALPEDLAARVAAVVVYGNPLGLTRRTIAQAAPAFATRTVEYCNAGDPVCEPGGGRFTAHITYATNGTVLEGARFAAARVTAPAPTPTPGPTGTPAPVPSAEPTPAPGDTCVTASSLQHVRDGRAYPLWMRTYARGSGDPLGVLSSRTVVSLQADGTDTWRKVAAC
In the case of B1, the “Enzymatic activity of the purified variant” value ([1]; pNP-palmitate) is reported as 26 ± 1 U/mg, the “Spec. Act. (U/mg)” value ([1]; towards pNP-palmitate (standard assay)) is reported as 26 ± 1 U/mg and the “Relative enzymatic activity (%)” value ([2]; 2-Propanol 5% (v/v)) is reported as 70 ± 3%. The “Relative enzymatic activity (%)” value ([2]; 2-Propanol 10% (v/v)) was 17 ± 8%, the “Relative enzymatic activity (%)” value ([2]; Acetone 1% (v/v)) was 92 ± 9% and the “Relative enzymatic activity (%)” value ([2]; Acetone 5% (v/v)) was 95 ± 1%. The “Relative enzymatic activity (%)” value ([2]; Acetone 10% (v/v)) was 52 ± 5%, the “Relative enzymatic activity (%)” value ([2]; Dimethyl sulfoxide (DMSO) 10% (v/v)) was 105 ± 11% and the “Relative enzymatic activity (%)” value ([2]; Dimethyl sulfoxide (DMSO) 20% (v/v)) was 107 ± 1%. The “Relative enzymatic activity (%)” value ([2]; Dimethyl sulfoxide (DMSO) 30% (v/v)) was 57 ± 15%, the “Relative enzymatic activity (%)” value ([2]; Dimethylformamide (DMF) 5% (v/v)) was 101 ± 17% and the “Relative enzymatic activity (%)” value ([2]; Methanol 10% (v/v)) was 115 ± 11%. The “Relative enzymatic activity (%)” value ([2]; Methanol 20% (v/v)) was 62 ± 3%, the “Relative activity (%) after exposure to hydrogen peroxide” value (“Relative activity (%) after exposure” below) ([3]; H2O2 30 ppm, Day 0) was 101 ± 22% and the “Relative activity (%) after exposure” value ([3]; H2O2 30 ppm, Day 1) was 89 ± 8%. For the same molecule, the “Relative activity (%) after exposure” value ([3]; H2O2 30 ppm, Day 2) was 82 ± 8%, the “Relative activity (%) after exposure” value ([3]; H2O2 30 ppm, Day 3) was 76 ± 6% and the “Relative activity (%) after exposure” value ([3]; H2O2 30 ppm, Day 7) was 72 ± 7%. For the same molecule, the “Relative activity (%) after exposure” value ([3]; H2O2 100 ppm, Day 0) was 92 ± 5%, the “Relative activity (%) after exposure” value ([3]; H2O2 100 ppm, Day 1) was 114 ± 15% and the “Relative activity (%) after exposure” value ([3]; H2O2 100 ppm, Day 2) was 118 ± 15%. For the same molecule, the “Relative activity (%) after exposure” value ([3]; H2O2 100 ppm, Day 3) was 92 ± 11%, the “Relative activity (%) after exposure” value ([3]; H2O2 100 ppm, Day 7) was 94 ± 7% and the “Relative activity (%) after exposure” value ([3]; H2O2 300 ppm, Day 0) was 93 ± 12%. For the same molecule, the “Relative activity (%) after exposure” value ([3]; H2O2 300 ppm, Day 1) was 106 ± 20%, the “Relative activity (%) after exposure” value ([3]; H2O2 300 ppm, Day 2) was 118 ± 12% and the “Relative activity (%) after exposure” value ([3]; H2O2 300 ppm, Day 3) was 102 ± 14%. The “Relative activity (%) after exposure” value ([3]; H2O2 300 ppm, Day 7) was 106 ± 13%, the “Relative activity (%) after exposure” value ([3]; H2O2 1,500 ppm, Day 0) was 126 ± 1% and the “Relative activity (%) after exposure” value ([3]; H2O2 1,500 ppm, Day 1) was 106 ± 12%. The “Relative activity (%) after exposure” value ([3]; H2O2 1,500 ppm, Day 2) was 109 ± 2%, the “Relative activity (%) after exposure” value ([3]; H2O2 1,500 ppm, Day 3) was 95 ± 4% and the “Relative activity (%) after exposure” value ([3]; H2O2 1,500 ppm, Day 7) was 54 ± 16%. For the same molecule, the “Relative activity (%) after exposure” value ([3]; H2O2 3,000 ppm, Day 0) was 128% and 128 ± 18%, the “Relative activity (%) after exposure” value ([3]; H2O2 3,000 ppm, Day 1) was 115 ± 2% and the “Relative activity (%) after exposure” value ([3]; H2O2 3,000 ppm, Day 2) was 99 ± 23%. For the same molecule, the “Relative activity (%) after exposure” value ([3]; H2O2 3,000 ppm, Day 3) was 60 ± 6%, the “Relative activity (%) after exposure” value ([3]; H2O2 3,000 ppm, Day 7) was 35% and 35 ± 1% and the pH opt. (pH dependence of enzymes) was 9.5. For the same molecule, the “Relative activity (%)” value (pH dependence of enzymes; pH 6.5, sodium phosphate buffer) was 13 ± 2%, the “Relative activity (%)” value (pH dependence of enzymes; pH 7.0, sodium phosphate buffer) was 40 ± 4% and the “Relative activity (%)” value (pH dependence of enzymes; pH 7.5, sodium phosphate buffer) was 65 ± 5%. The “Relative activity (%)” value (pH dependence of enzymes; pH 8.0, Tris/HCl) was 62 ± 2%, the “Relative activity (%)” value (pH dependence of enzymes; pH 8.5, Tris/HCl) was 85 ± 6% and the “Relative activity (%)” value (pH dependence of enzymes; pH 9.0, Tris/HCl) was 93 ± 9%. For the same molecule, the “Relative activity (%)” value (pH dependence of enzymes; pH 9.5, Tris/HCl) was 100* %, the “Relative activity (%)” value (pH dependence of enzymes; pH 10, Tris/HCl) was 31 ± 1% and the “activity of crude culture supernatant” value [4] was 0.5 U/mL. For the same molecule, the refolding ([5]; CD at 222 nm) was “did not show any refolding”, the “melting temperature (Tm)” value ([5]; CD at 222 nm, unfolding) was 65.2 °C and the “Tm (° C.)” value ([5]; estimated using CD-spectroscopy) was 65 ± 1 °C. The “Temp. opt. (° C.)” value (Temperature optimum) was 25 °C, the “Relative activity at temperature” value (Temperature optimum; 20 ° C.) was 69 ± 2% and the “Relative activity at temperature” value (Temperature optimum; 25 ° C.) was 100* %. For the same molecule, the “Relative activity at temperature” value (Temperature optimum; 30 ° C.) was 63 ± 7%, the “Relative activity at temperature” value (Temperature optimum; 35 ° C.) was 45 ± 5% and the “Relative activity at temperature” value (Temperature optimum; 40 ° C.) was 38 ± 8%. For the same molecule, the “Relative activity at temperature” value (Temperature optimum; 45 ° C.) was 1%, the “Relative activity, pNP-acetate (C2)” value [6] was 6% and the “Relative activity, pNP-butyrate (C4)” value [6] was 93 ± 8%. The “Relative activity, pNP-caprylate (C8)” value [6] was 11 ± 2%, the “Relative activity, pNP-decanoate (C10)” value [6] was 40 ± 5% and the “Relative activity, pNP-myristate (C14)” value [6] was 47 ± 8%. The “Relative activity, pNP-palmitate (C16)” value [6] was 100* %.
